How the values were obtained:
Assay in all cases: flow cytometry on cells
[1] = target: T1, C-terminally truncated wild-type Ste2p (Saccharomyces cerevisiae, UniProt D6VTK4 1-303)
T1 sequence (looked up): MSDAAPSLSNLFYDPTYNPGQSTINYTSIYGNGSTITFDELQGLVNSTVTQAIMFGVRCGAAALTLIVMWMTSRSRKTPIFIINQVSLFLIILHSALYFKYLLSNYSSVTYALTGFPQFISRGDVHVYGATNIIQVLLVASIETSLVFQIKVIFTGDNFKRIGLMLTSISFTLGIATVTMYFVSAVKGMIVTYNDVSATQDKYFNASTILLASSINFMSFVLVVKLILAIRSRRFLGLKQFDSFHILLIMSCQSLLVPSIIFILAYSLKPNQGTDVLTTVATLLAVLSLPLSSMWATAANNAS

[2] = target: T2, C-terminally truncated Ste2p H94Y (Saccharomyces cerevisiae, UniProt D6VTK4 1-303, H94Y)
T2 sequence (looked up): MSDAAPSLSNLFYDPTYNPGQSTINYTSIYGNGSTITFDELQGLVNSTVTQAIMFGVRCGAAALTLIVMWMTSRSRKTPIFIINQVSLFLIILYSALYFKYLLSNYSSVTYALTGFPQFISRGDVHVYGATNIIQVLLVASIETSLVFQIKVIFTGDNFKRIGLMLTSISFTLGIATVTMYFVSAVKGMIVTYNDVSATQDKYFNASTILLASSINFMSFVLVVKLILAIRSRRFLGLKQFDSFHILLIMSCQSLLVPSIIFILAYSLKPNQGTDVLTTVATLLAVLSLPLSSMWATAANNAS

[3] = target: T3, C-terminally truncated Ste2p V49D (Saccharomyces cerevisiae, UniProt D6VTK4 1-303, V49D)
T3 sequence (looked up): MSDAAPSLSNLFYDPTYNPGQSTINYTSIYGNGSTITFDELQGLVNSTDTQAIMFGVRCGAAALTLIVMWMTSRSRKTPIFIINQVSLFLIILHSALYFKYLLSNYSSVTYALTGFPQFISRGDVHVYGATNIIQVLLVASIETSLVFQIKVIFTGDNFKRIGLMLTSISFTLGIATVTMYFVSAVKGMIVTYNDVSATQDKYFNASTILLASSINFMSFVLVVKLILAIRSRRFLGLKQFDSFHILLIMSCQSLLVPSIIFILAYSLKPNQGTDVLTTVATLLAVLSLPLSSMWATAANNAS

[4] = target: T4, full-length wild-type Ste2p (Saccharomyces cerevisiae, UniProt D6VTK4 1-431)
T4 sequence (looked up): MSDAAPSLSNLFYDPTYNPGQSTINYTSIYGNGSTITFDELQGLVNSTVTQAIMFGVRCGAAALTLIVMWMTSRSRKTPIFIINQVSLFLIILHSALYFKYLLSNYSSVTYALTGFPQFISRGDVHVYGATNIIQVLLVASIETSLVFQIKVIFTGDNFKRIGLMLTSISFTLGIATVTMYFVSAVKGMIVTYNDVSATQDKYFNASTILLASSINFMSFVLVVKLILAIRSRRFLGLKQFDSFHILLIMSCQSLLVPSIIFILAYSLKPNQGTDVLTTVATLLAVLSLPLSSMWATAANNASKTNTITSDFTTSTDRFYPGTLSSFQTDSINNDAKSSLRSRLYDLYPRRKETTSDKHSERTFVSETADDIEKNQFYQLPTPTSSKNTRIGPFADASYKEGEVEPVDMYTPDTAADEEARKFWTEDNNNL

[5] = target: T5, C-terminally truncated Ste2p F38Y (Saccharomyces cerevisiae, UniProt D6VTK4 1-303, F38Y)
T5 sequence (looked up): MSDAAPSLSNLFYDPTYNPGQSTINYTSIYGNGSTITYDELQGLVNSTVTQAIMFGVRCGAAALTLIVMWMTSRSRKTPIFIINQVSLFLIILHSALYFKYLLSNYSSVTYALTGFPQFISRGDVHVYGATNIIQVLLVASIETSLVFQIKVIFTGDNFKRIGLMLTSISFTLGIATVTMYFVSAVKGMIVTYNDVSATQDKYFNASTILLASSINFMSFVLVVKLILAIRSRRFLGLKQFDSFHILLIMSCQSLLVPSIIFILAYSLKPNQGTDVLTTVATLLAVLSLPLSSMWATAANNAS

full-length Ste2p S95Y = target: T6, full-length Ste2p S95Y (Saccharomyces cerevisiae, UniProt D6VTK4 1-431, S95Y)
T6 sequence (looked up): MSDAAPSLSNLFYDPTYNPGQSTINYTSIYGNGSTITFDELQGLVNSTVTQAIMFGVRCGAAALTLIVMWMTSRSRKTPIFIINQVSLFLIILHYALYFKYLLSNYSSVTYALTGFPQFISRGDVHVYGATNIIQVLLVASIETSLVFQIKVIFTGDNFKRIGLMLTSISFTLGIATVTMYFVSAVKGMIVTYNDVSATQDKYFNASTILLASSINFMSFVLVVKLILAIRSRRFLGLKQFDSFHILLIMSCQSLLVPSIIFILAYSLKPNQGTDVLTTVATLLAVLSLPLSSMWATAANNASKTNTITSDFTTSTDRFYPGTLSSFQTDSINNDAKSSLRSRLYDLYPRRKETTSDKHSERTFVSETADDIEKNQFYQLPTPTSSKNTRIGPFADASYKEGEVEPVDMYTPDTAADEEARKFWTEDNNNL

B1: [K^7(NBD),Nle^12] α-factor (peptide)
chain: WHWLQLKPGQPMY
modifications: NBD (7-nitrobenz-2-oxa-1,3-diazol-4-yl) conjugated to the lysine at position 7; norleucine at position 12 in place of methionine
B1 was tested, and the Kd [1] was 45 ± 1.7 nM, the Kd [2] was 90 ± 12 nM and the Kd [3] was 35 ± 4 nM. The Kd [4] was 28 ± 4.7 nM, the Kd [5] was 64 ± 7.9 nM and the Kd (full-length Ste2p S95Y) was 2.1 ± 1.5 nM.
